{
  "source": "the RNAGym collection of RNA variant scans (doi:10.1021/acssynbio.7b00057)",
  "parents": {"B1": {"name": "Pistol ribozyme (parent)", "chain": "GGGUCGUUGUUCCAUAAUCGCGUGGAUAUGGCACGCAAGUUUCUACCGGGCACCGUAAAUGUCCGACUGGAGCCGUUCGGGCGGCUAUAAACAGACCUCAGGCCCGAAGCGUGGCGGCACCUGCCGCCGGUGGUAAAAAAGAUCGGAAGAGCACACGUCU"}},
  "data": [
    {"variants_of": "B1", "test": "aptazyme ON/OFF ratio, guanine; higher = stronger switching; co-transcriptional cleavage with and without guanine", "values": [
      {"variant": "U7G U8A G9C U10G U11A C12A C13G", "aptazyme ON/OFF ratio": 0.999},
      {"variant": "U7G U8A G9C U10G U11A C12A C13U", "aptazyme ON/OFF ratio": 1.03},
      {"variant": "U7G U8A G9C U10G C12G", "aptazyme ON/OFF ratio": 1.06},
      {"variant": "U7G U8A G9C U10G C12A", "aptazyme ON/OFF ratio": 1.02},
      {"variant": "U7G U8A G9C U10G C12U", "aptazyme ON/OFF ratio": 1.03},
      {"variant": "U7G U8A G9U U10A", "aptazyme ON/OFF ratio": 1.46},
      {"variant": "U7G U8A G9U U10A C12U", "aptazyme ON/OFF ratio": 1.03},
      {"variant": "U7G U8A G9U U10A C12A", "aptazyme ON/OFF ratio": 1.05},
      {"variant": "U7G U8A G9U U10A C12G", "aptazyme ON/OFF ratio": 1.06},
      {"variant": "U7G U8A G9C U11G C13U", "aptazyme ON/OFF ratio": 1.04},
      {"variant": "U7G U8A G9C U11G C13A", "aptazyme ON/OFF ratio": 1.06},
      {"variant": "U7G U8A G9C U11G C13G", "aptazyme ON/OFF ratio": 1.04},
      {"variant": "U7G U8A G9C U10G U11A C13A", "aptazyme ON/OFF ratio": 1.05},
      {"variant": "U7G U8A G9C U10G U11A C13U", "aptazyme ON/OFF ratio": 1.03},
      {"variant": "U7G U8A G9C U10G U11A C13G", "aptazyme ON/OFF ratio": 1.02},
      {"variant": "U7G U8A G9U U10A U11A C12G", "aptazyme ON/OFF ratio": 1.05},
      {"variant": "U7G U8A G9U U10A U11A C12U", "aptazyme ON/OFF ratio": 1.09},
      {"variant": "U7G U8A G9U U10A U11A C12A", "aptazyme ON/OFF ratio": 1.08},
      {"variant": "U7G U8A G9C U10G U11G C12G C13U", "aptazyme ON/OFF ratio": 1.01},
      {"variant": "U7G U8A G9C U10G U11G C12G C13G", "aptazyme ON/OFF ratio": 1.05},
      {"variant": "U7G U8A G9C U10G U11G C12G C13A", "aptazyme ON/OFF ratio": 1.05},
      {"variant": "U7G U8A G9C U10G U11A C12U C13A", "aptazyme ON/OFF ratio": 1.03},
      {"variant": "U7G U8A G9C U10G U11A C12U C13G", "aptazyme ON/OFF ratio": 1.06},
      {"variant": "U7G U8A G9C U10G U11A C12U C13U", "aptazyme ON/OFF ratio": 1.03},
      {"variant": "U7G U8A G9C U10A C12A", "aptazyme ON/OFF ratio": 1.03},
      {"variant": "U7G U8A G9C U10A C12G", "aptazyme ON/OFF ratio": 1.01},
      {"variant": "U7G U8A G9C U10A C12U", "aptazyme ON/OFF ratio": 1.03},
      {"variant": "U7G U8A G9C U10G U11A C12G C13U", "aptazyme ON/OFF ratio": 1.07},
      {"variant": "U7G U8A G9C U10G U11A C12G C13A", "aptazyme ON/OFF ratio": 1.01},
      {"variant": "U7G U8A G9C U10G U11A C12G C13G", "aptazyme ON/OFF ratio": 1.04},
      {"variant": "U7G U8A G9C U10A U11A C12G C13G", "aptazyme ON/OFF ratio": 1.01},
      {"variant": "U7G U8A G9C U10A U11A C12G C13A", "aptazyme ON/OFF ratio": 1.04},
      {"variant": "U7G U8A G9C U10A U11A C12G C13U", "aptazyme ON/OFF ratio": 1.02},
      {"variant": "U7G U8A G9U U10A U11A C12A C13U", "aptazyme ON/OFF ratio": 1.04},
      {"variant": "U7G U8A G9U U10A U11A C12A C13G", "aptazyme ON/OFF ratio": 1.08},
      {"variant": "U7G U8A G9U U10A U11A C12A C13A", "aptazyme ON/OFF ratio": 1.13},
      {"variant": "U7G U8A G9C U11C C12U C13G", "aptazyme ON/OFF ratio": 1.08},
      {"variant": "U7G U8A G9C U11C C12U C13A", "aptazyme ON/OFF ratio": 1.06},
      {"variant": "U7G U8A G9C U11C C12U C13U", "aptazyme ON/OFF ratio": 1.03},
      {"variant": "U7G U8A G9C U10C U11C", "aptazyme ON/OFF ratio": 1.01},
      {"variant": "U7G U8A G9C U10C U11G", "aptazyme ON/OFF ratio": 1.05},
      {"variant": "U7G U8A G9C U10C U11A", "aptazyme ON/OFF ratio": 0.986},
      {"variant": "U7G U8A G9C U10C U11A C12G C13A", "aptazyme ON/OFF ratio": 1.03},
      {"variant": "U7G U8A G9C U10C U11A C12G C13G", "aptazyme ON/OFF ratio": 1.05},
      {"variant": "U7G U8A G9C U10C U11A C12G C13U", "aptazyme ON/OFF ratio": 1.09},
      {"variant": "U7G U8A G9C U10A U11G C12A C13G", "aptazyme ON/OFF ratio": 1.05},
      {"variant": "U7G U8A G9C U10A U11G C12A C13U", "aptazyme ON/OFF ratio": 1.04},
      {"variant": "U7G U8A G9C U10A U11G C12A C13A", "aptazyme ON/OFF ratio": 1.05},
      {"variant": "U7G U8A G9C U10C U11A C12G", "aptazyme ON/OFF ratio": 1.05},
      {"variant": "U7G U8A G9C U10C U11A C12A", "aptazyme ON/OFF ratio": 1.03},
      {"variant": "U7G U8A G9C U10C U11A C12U", "aptazyme ON/OFF ratio": 1.07},
      {"variant": "U7G U8A G9A U11G C12A C13A", "aptazyme ON/OFF ratio": 1.05},
      {"variant": "U7G U8A G9A U11G C12A C13U", "aptazyme ON/OFF ratio": 1.23},
      {"variant": "U7G U8A G9A U11G C12A C13G", "aptazyme ON/OFF ratio": 1.13},
      {"variant": "U7G U8A G9U U10A U11C", "aptazyme ON/OFF ratio": 1.03},
      {"variant": "U7G U8A G9U U10A U11A", "aptazyme ON/OFF ratio": 1.46},
      {"variant": "U7G U8A G9C U11C C12G C13G", "aptazyme ON/OFF ratio": 1.03},
      {"variant": "U7G U8A G9C U11C C12G C13A", "aptazyme ON/OFF ratio": 1.02},
      {"variant": "U7G U8A G9C U11C C12G C13U", "aptazyme ON/OFF ratio": 1.04},
      {"variant": "U7G U8A G9U C13G", "aptazyme ON/OFF ratio": 1.06},
      {"variant": "U7G U8A G9U C13U", "aptazyme ON/OFF ratio": 1.3},
      {"variant": "U7G U8A G9U C13A", "aptazyme ON/OFF ratio": 1.08},
      {"variant": "U7G U8A G9C U11C C12A C13A", "aptazyme ON/OFF ratio": 1.04},
      {"variant": "U7G U8A G9C U11C C12A C13G", "aptazyme ON/OFF ratio": 1.04},
      {"variant": "U7G U8A G9C U11C C12A C13U", "aptazyme ON/OFF ratio": 1.06},
      {"variant": "U7G U8A G9C C12A C13A", "aptazyme ON/OFF ratio": 1.04},
      {"variant": "U7G U8A G9C C12A C13U", "aptazyme ON/OFF ratio": 0.986},
      {"variant": "U7G U8A G9C C12A C13G", "aptazyme ON/OFF ratio": 1.03},
      {"variant": "U7G U8A G9C U10A U11C C12A C13U", "aptazyme ON/OFF ratio": 1.03},
      {"variant": "U7G U8A G9C U10A U11C C12A C13G", "aptazyme ON/OFF ratio": 1.01},
      {"variant": "U7G U8A G9C U10A U11C C12A C13A", "aptazyme ON/OFF ratio": 1.04},
      {"variant": "U7G U8A G9C U10A U11G C12G C13A", "aptazyme ON/OFF ratio": 1.05},
      {"variant": "U7G U8A G9C U10A U11G C12G C13G", "aptazyme ON/OFF ratio": 1.03},
      {"variant": "U7G U8A G9C U10A U11G C12G C13U", "aptazyme ON/OFF ratio": 1.04},
      {"variant": "U7G U8A G9C U10C C12A C13U", "aptazyme ON/OFF ratio": 1.01},
      {"variant": "U7G U8A G9C U10C C12A C13A", "aptazyme ON/OFF ratio": 1.07},
      {"variant": "U7G U8A G9C U10C C12A C13G", "aptazyme ON/OFF ratio": 1.03},
      {"variant": "U7G U8A G9C U10A C12G C13G", "aptazyme ON/OFF ratio": 1.06},
      {"variant": "U7G U8A G9C U10A C12G C13U", "aptazyme ON/OFF ratio": 1.03},
      {"variant": "U7G U8A G9C U10A C12G C13A", "aptazyme ON/OFF ratio": 1.04},
      {"variant": "U7G U8A G9C U10G U11G C13G", "aptazyme ON/OFF ratio": 1.1},
      {"variant": "U7G U8A G9C U10G U11G C13A", "aptazyme ON/OFF ratio": 1.19},
      {"variant": "U7G U8A G9C U10G U11G C13U", "aptazyme ON/OFF ratio": 1.27}
    ]}
  ]
}
